Experimental findings from paper PMC4498709 are described below.

Data set [1] concerns ctMex67 LRR-NTF2L (RRM deletion);ctMtr2 (Chaetomium thermophilum;Chaetomium thermophilum). Briefly: fluorescence anisotropy. The conditions noted are these: 20 mM Tris-HCl pH 8.0, 50 mM NaCl, 10 nM DY-547-labelled RNA, serially diluted protein; temperature not stated.
The test system of data set [2] is ctMex67 RRM-LRR (NTF2L-Mtr2 deletion) (Chaetomium thermophilum). Briefly: fluorescence anisotropy. Conditions: 20 mM Tris-HCl pH 8.0, 50 mM NaCl, 10 nM DY-547-labelled RNA, serially diluted protein; temperature not stated.
For data set [3], the system named is ctMex67 deltaUBA (deltaN deltaUBA);ctMtr2 (Chaetomium thermophilum;Chaetomium thermophilum). Briefly: fluorescence anisotropy. Conditions: 20 mM Tris-HCl pH 8.0, 50 mM NaCl, 10 nM DY-547-labelled RNA, serially diluted protein; temperature not stated.
Data set [4] deals with ctMex67 deltaN (with Mtr2);ctMtr2 (Chaetomium thermophilum;Chaetomium thermophilum). Briefly: fluorescence anisotropy. The conditions noted are these: 20 mM Tris-HCl pH 8.0, 50 mM NaCl, 10 nM DY-547-labelled RNA, serially diluted protein, temperature not stated.
Data set [5] has as its target Chaetomium thermophilum Mex67 LRR-NTF2L (ctMex67^LRR-NTF2L; residues 180-556) (Chaetomium thermophilum). Briefly: SEC-MALS; ctMex67^LRR-NTF2L alone; single peak; dimer.

Regarding AAAAAAAAAAAAAAA [polyA15], the dissociation constant (Kd) in data set [1] was 6800 nM; in data set [2] it was 5500 nM; in data set [3], 370 nM; in data set [4], 350 nM.

For CCCCCCCCCCCCCCC [polyC15], the equilibrium dissociation constant (Kd) in data set [4] came out at 6000 nM.

In data set [5], “Chaetomium thermophilum Mex67 LRR-NTF2L (ctMex67^LRR-NTF2L; residues 180-556) (domain or fragment)” had a stoichiometry N of 2.

GGGGGGGGGGGGGGG [polyG15] displayed a Kd in data set [4] of 310 nM.

On to UUUUUUUUUUUUUUU [polyU15], for which, in data set [4] (printed '930 and 6.0 µM, respectively', 930 read as nM), the Kd was determined as 930 nM.
